The supplement of paper PMC10567573

B1: FAM107A (parent)
chain: LQRVLEHRRRNQLIKKKKEELEAK
B2: ZER1 (parent)
chain: KEMARKVIEHCSNFKEENMDTSR

Variants of: B1
Assay: protein stability index of a GFP-peptide fusion (GPS, HEK-293T) (PSI 1-6); higher = more stable
Details: c terminus: a fixed tail appended
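Also: lentivirally expressed fusions sorted by FACS into six bins by GFP to DsRed ratio, PSI derived from sequencing read proportions per bin multiplied by bin number.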

Protein stability index of substitutions, site by site:
R9: A 4.4, P 3.81, T 4.07, E 3.97, F 2.49
Q2: T 4.02, A 2.93, L 1.81, W 2.06, Y 2.13, K 4.01
K24: L 3.04, T 3.97, R 2.61, N 3.77
R3: F 3.04, H 4.12, C 3.13
L13: V 3.08, Y 3.37, E 4.54, C 3.3, I 3.76
R8: D 4.61, F 2.1, V 3.05, G 3.39, L 2.15
E6: C 3.12, S 4.13, T 3.02, V 3.68, I 2.73, P 3.96, A 3.07
K15: I 3.24, A 4.16, G 4.49, N 4
A23: D 3.75, I 2.75, H 2.76, V 3.03, W 4.26, E 4.14, M 3.39
L5: F 3.77, Y 2.98, H 5.17, Q 3.94
E19: Q 2.56, L 1.86
L21: V 3.36, K 2.99, F 2.71, T 3.74, H 3.77
E20: T 3.45, G 2.42, M 3.5, K 3.34, V 3.58
E22: I 2.58, C 2.54, T 3.51, R 2.26, K 4.21, D 2.62
K18: T 3.93, M 3.57, E 3.89, S 3.62, Q 3.04, A 4.54
K17: C 2.8, H 3.52, M 3.16, Y 3.37, L 3.5, D 4.78
N11: T 3.38, L 2.65, M 3.4, K 3.62, F 2.72, P 3.24, G 3.57, H 3.23
I14: F 4.1, C 3.42, D 4.39
Q12: E 4.11, S 3.11, F 2.66, M 3.45
K16: D 4.44, W 3.58, N 4.07, Q 3.82, H 3
R10: M 2.85, K 3.29, W 3.94, P 4.23
H7: E 3.9, G 4.29
V4: L 2.87, N 4.87, P 4.66, R 4.14, K 4.39, F 2.05

Variants of: B2
Assay: as above
Details: c terminus: native

Protein stability index, by site and new letter:
N18: L 2.91, E 4.22, D 3.52, W 3.6, C 3.3, M 3.54, K 2.99, Y 3.08, I 3.31, H 3.47, F 3.07, T 3.45, V 3.46, A 3.34, G 4.02, P 3.9, S 3.7, Q 3.6, R 2
S22: V 3.7, H 3.09, I 3.72, G 3.48, A 2.64, F 3.72, R 2.38, Y 3.76, K 2.86, C 2.4, D 4.07, M 3.43, Q 3.72, L 3.58, E 3.74, T 4.42, N 4.12, P 4.29, W 2.97
N13: I 1.93, G 3.5, Y 3.15, L 1.92, S 3.33, H 3.53, F 2.49, Q 3.07, V 3.05, M 2.88, C 3.04, E 3.69, T 3.68, R 3.11, D 3.61, A 3.28, K 3.85, W 2.4, P 3.32
R23: Q 5.31, W 3.91, F 4.69, D 5.41, N 5.16, T 5.01, A 4.67, G 5.08, Y 4.54, I 4.9, L 4.86, V 4.76, K 5.27, S 4.84, H 5.07, M 4.6, P 4.6, C 4.72, E 5.48
D20: M 1.91, T 2.99, G 2.68, S 2.46, E 2.51, I 1.52, C 2.08, Q 2.23, Y 2.89, A 1.63, F 2.98, V 1.51, L 1.87, R 2.13, N 4.59, P 2.46, H 2.96, W 2.5, K 2.29
K15: R 2.8, N 3.64, M 3.54, W 2.85, I 3.5, G 3.7, D 4.24, P 4.08, Q 3.57, E 4.32, Y 3.27, T 4.15, A 3.31, V 3.9, L 3.13, C 3.93, H 3.52, F 3.17, S 3.34
T21: H 2.18, R 1.65, S 4.65, I 3.16, F 3.84, C 3.39, W 2.3, E 4.98, N 4.48, K 1.68, A 4.09, M 4.41, Y 2.13, G 5.12, Q 3.84, L 3.26, P 4.17, V 3.1, D 5.16
S12: Q 3.55, H 3.66, W 2.63, T 3.59, P 4.37, R 3.25, I 2.56, L 2.45, V 2.96, M 2.54, K 3.49, N 3.95, Y 2.73
E16: H 2.79, C 3.17, K 3.85, L 2.52, F 2.46, R 2.98, M 2.68, D 3.07, I 2.45, V 3.43, Y 2.37, W 2.16, G 3.83, Q 3.14, P 3.31, N 3.19, S 4.19, A 2.9, T 3.1
M19: C 3.51, N 4.29, A 3.68, T 3.92, S 3.63, Y 3.71, V 3.77, R 3.62, W 3.64, D 4.46, I 4.32, L 3.47, G 3.37, E 4.15, P 3.58, H 3.77, F 3.94, Q 3.87, K 2.81
F14: G 4.69, L 4.03, D 5.02, V 4.94, K 4.92, H 4.8, C 3.91, R 4.55, A 4.56, W 3.33, Y 3.56, M 4.4, T 4.46, N 4.73, P 4.26, I 4.35, Q 4.73, S 4.68, E 4.78
E17: C 2.68, K 2.84, T 3.45, V 2.74, F 2.79, N 3.55, Y 2.41, G 3.4, W 2.2, S 3.29, A 2.98, H 2.83, Q 3.19, M 3.51, R 2.21, L 2.35, P 2.93, I 3.15, D 3.63
